Assay results published in patent US5811393A (The Childrens Medical Center Corp., priority 1993, dated 1998).

Experiments:
[1] = test system: bovine aortic smooth muscle cells; assay: [3H]-thymidine incorporation into smooth muscle cell DNA; assay type: cell-based; conditions: purification steps of HB-EHM from 8 L U-937 conditioned medium
Method: (§1) Conditioned medium was assayed for growth factor activity directly, as described below, using either fibroblasts (i.e., BALB/c mouse 3T3 cells), epithelial cells (i.e., human keratinocytes), or smooth muscle cells (i.e., bovine aortic smooth muscle cells, BASMC). Alternatively, CM was first fractionated by fast protein liquid chromatography (FPLC, Pharmacia, Piscataway, N.J.) by applying 500 ml of the CM to a TSK-heparin 5PW column (8×75 mm, TOSOHAAS, Philadelphia, Pa.). The column was washed with 10 column volumes of equilibration buffer (0.2M NaCl, 0.01M Tris-HCl, pH 7.5), and bound protein was eluted with a 40 ml linear gradient of 0.2-2M NaCl in 0.01M Tris-HCl , pH 7.4 at 1 ml/min. Fractions (2.5 ml) were tested for growth factor activity by measuring the effect of aliquots of the fractions on DNA synthesis in, or the proliferation of, BALB/c mouse 3T3 cells; such activity was monitored by assaying the incorporation of [^3 H]-thymidine into DNA and/or by measuring the increase in cell number. Measurement of DNA synthesis in BALB/c mouse 3T3 cells was performed as described by Shing et al. (223 Science 1296, 1984, hereby incorporated by reference). One unit of BALB/c mouse 3T3 stimulation activity was defined as the amount of growth factor required to stimulate half-maximal DNA synthesis in BALB/c mouse 3T3 cells under the conditions described in Shing et al. (supra). […]

[2] = test system: bovine aortic smooth muscle cells (BASMC); assay: Bovine aortic smooth muscle cell proliferation by cell counting; assay type: cell-based; conditions: 100 pg/ml; cells counted after three days, 1% calf serum
Method: Bovine aortic smooth muscle cell proliferation was also assayed by counting cell number following growth factor stimulation. In these experiments, cells were plated sparsely in 24 well plates in DMEM/10% bovine calf serum/1% GPS (100% GPS is glutamine 29.2 mg/ml, penicillin 10,000 units/ml, streptomycin sulfate 10,000 μg/ml; GIBCO, Grand Island, N.Y.) at 10^4 cells/well. Test samples were then added and, after three days, cells were removed by trypsinization and counted in a Coulter counter (Coulter, Hialeah, Fla.).
BASMC were plated in DMEM, 10% calf serum, 100 U/ml penicillin, 100 μg/ml streptomycin sulfate at 5×10^3 cells/well in a 24 well plate, and, after attachment of the cells (e.g., following an overnight incubation), the media was replaced with DMEM, 1% calf serum, and penicillin and streptomycin as above. HB-EHM, recombinant human EGF (Creative Biomolecules, Hopkinton, Mass.), or recombinant PDGF (Creative Biomolecules, Hopkinton, Mass.) was then added to the wells. Cells were counted after three days.

[3] = test system: bovine capillary endothelial cells; assay: Proliferation / DNA synthesis of bovine capillary endothelial cells; assay type: cell-based; conditions: purified form
Method: as §1

[4] = test system: EGF receptors on BASMC; assay: Competitive [125I]EGF binding to bovine aortic smooth muscle cells
Method: Competitive binding assays were used to measure this interaction and were performed as follows.

[5] = test system: EGF receptor; assay: EGF receptor autophosphorylation in A-431 cells (anti-phosphotyrosine Western blot); assay type: cell-based, human; conditions: 5 ng/ml, 15 minutes
Method: This was shown by plating A-431 cells in 6-well plates and culturing in Dulbecco's Modified Eagle's Medium (DMEM) containing 10% fetal bovine serum and antibiotics. […] After 15 minutes, the cells were washed with ice-cold phosphate-buffered saline containing 0.4 mm EDTA, 10 mM Na-fluorate, 10 mM Na-pyrophosphate and 0.4 mM Na-orthovanadate, scraped and lysed in 100 μl of PI/RIPA buffer [1% NP-40 (Pierce, Rockford, Ill.), 1% deoxycholate (Aldrich, Milwaukee, Wis.), 0.1% SDS, 1% aprotinin (Boehringer-Mannheim, Indianapolis, Ind.), 1 mM PMSF (Pierce), 2 mM EDTA (Sigma), 10 mM Na-fluorate, (Sigma, St. Louis, Mo.), 10 mM Na-pyrophosphate (Baker, Phillipsburg, N.J.), 0.4 mM Na-orthovanadate, (Aldrich), 10 mM iodoacetamide (Aldrich) in phosphate buffered saline]. Thirty μl of supernatant clarified by spinning for a 5 minute period in a microfuge was analyzed by reducing SDS/polyacrylamide gel electrophoresis (6% polyacrylamide gel). […] A standard of phosphorylated EGF receptor was purchased from UBI (Lake Placid, N.Y.).

[6] = Stability of growth-stimulatory activity to acid, heat and DTT (read out in BALB/c 3T3 [3H]-thymidine assay); assay type: physicochemical
Method: as §1, with “(supra). To measure DNA synthesis in bovine capillary endothelial cells, cells were trypsinized and re-plated sparsely (1×10^4 cells/well) with 400 μl of Dulbecco's modified Eagle's medium (DMEM, GIBCO, Grand Island, N.Y.) supplemented with 10% bovine calf serum (GIBCO, Grand Island, N.Y.) and antibiotics (100 units/ml penicillin and 100 μg/ml streptomycin sulfate, GIBCO, Grand Island, N.Y.) in 48-well plates (Costar, Cambridge, Mass.). After 24 hours of incubation, the medium was replaced with the same volume of DMEM supplemented with 2% bovine calf serum, antibiotics, 1 μM thymidine and 0.5% bovine serum albumin. After 24 hours of incubation, the test samples were added to the wells. Eighteen hours later, [^3 H]-thymidine (0.6 uCi/well, New England Nuclear, Wilmington, Del.) was added. After an additional 5 hours, each plate was treated by the same procedure as used to harvest the BALB/c mouse 3T3 cells to measure the incorporation of [^3 H]-thymidine into the DNA of the cells. To measure DNA synthesis in bovine aortic smooth muscle cells (from Dr. H. Weich, Children's Hospital, Boston), the cells were trypsinized and re-plated sparsely (1×10^4 cells/well) with 400 μl of DMEM supplemented with 10% Colorado calf serum (Colorado Serum Company) and antibiotics (100 units/ml penicillin and 100 μg/ml streptomycin sulfate, GIBCO, Grand Island, N.Y.) in 48-well plates.” for “(supra).”

B1: HB-EHM: novel heparin binding growth factor with EGF-homologous segment, purified from U-937 lymphoma cell conditioned medium, about 22 kD (protein)
chain: RVTLSSKPQALATPNKEEHGKRKKKGKGLGKKRDPCLRKYKDFCIHGECKYVKELRAPSCICHPGYHGERCHGLS
modifications: O-linked glycosylation (suggested by O-glycanase treatment; the threonines predicted at positions 2 and 12 of the form first sequenced were not detected in protein sequencing)
Maximal Stimulation [1]: 0.5 ng/mL | increase in BASMC proliferation [2]: 2.5 fold | proliferation of bovine capillary endothelial cells [3]: did not stimulate proliferation | 50% inhibition of [125I]EGF binding ([4]; BASMC, 6-well plates): 63 pg/mL | binding to EGF receptors on SMC ([4]; purified HB-EHM): found to bind | autophosphorylation of the EGF receptor (170 kDa protein) [5]: triggered autophosphorylation | growth-stimulatory activity after exposure to DTT ([6]; 5 mM DTT for 2 hours, 3T3 [3H]-thymidine readout): destroyed completely | activity after acid treatment with glycine-HCl ([6]; 0.1M glycine-HCl, pH 2.5 for 2 hours): not lost | growth-stimulatory activity after heating ([6]; 90° C. for 5 minutes, 3T3 [3H]-thymidine readout): not destroyed | growth-stimulatory activity after exposure to pH 2.5 ([6]; pH 2.5 for 2 hours, 3T3 [3H]-thymidine readout): resistant
